Measurements reported in patent US20210285960A1.

Legend:
[1] = molecular target: Fab488-Fc555 dual-labeled test antibody; test: cell-based or functional assay
[2] = molecular target: PL555-PA488 dual-labeled test antibody; test: cell-based or functional assay

increase in 570 nm emission signal (FRET, 470 nm excitation) [1]: 35%
increase in 570 nm emission signal (FRET, 470 nm excitation) [2]: 18%
Substance: CA125 TIPS factor (MUC16/CA125), Q8WXI7 1-14451
